{
  "source": "patent US20240199758A1",
  "about": "“METHOD FOR ALLOWING IMMUNE CELLS INFILTRATION IN TUMORS” (Alethia Biotherapeutics Inc., priority 2021, published 2024)",
  "format_in_all_cases": "in vivo, Balb/c mice",
  "key": {"4T1 primary tumors": {"test_system": "4T1 primary tumors", "test": "4T1 model: CD45+ immune cells in primary tumors", "procedure": "(§1) Five groups, each consisting of 10 female Balb/c mice were assigned to this study (see Table 5 below). All animals received subcutaneous implantation of 4T1 mouse mammary carcinoma cells in the 4th inguinal mammary gland. Treatment was initiated on the day of implantation (defined as Day 1). Animals from Group 1 (Gr. 1) received IP treatment of saline vehicle control twice a week for the duration of the study. Animals from Group 2 (Gr. 2) received 10 mg/kg of docetaxel weekly for five weeks by IP administration. Animals from Group 3 (Gr. 3) received 10 mg/kg of docetaxel weekly for two weeks and 10 mg/kg of AB-16B5, twice weekly for five weeks. Animals from Group 4 (Gr. 4) received 10 mg/kg of docetaxel weekly and 5 mg/kg of 16B5 twice weekly each over the course of a five weeks treatment. Animals from Group 5 (Gr. 5) received AB-16B5 twice weekly for five weeks. On Day 36, the primary tumors were excised and on Day 37, the animals were sacrificed and the number of grossly visible metastatic nodules on the surface of the lungs was counted.\nThe primary tumors excised at Day 16 post implantation, were processed with collagenase and hyaluronidase and immune cells were purified by positive selection using magnetic latex beads coated with an anti-CD45 antibody. […]"}, "[1]": {"test_system": "4T1 mouse mammary carcinoma cells", "test": "4T1 model: number of metastatic lung nodules", "details": "Day 37", "procedure": "as §1"}, "4T1 tumor cells": {"test_system": "4T1 tumor cells", "test": "INFγ secretion of tumor infiltrating lymphocytes co-cultured with 4T1 cells (ELISA)", "procedure": "(§2) Balb/c mice were orthotopically implanted with 5×10^5 4T1 cells in the 4′ mammary fat pad. Animals received intraperitoneal (IP) AB-16B5 (murine 16B5) 10 mg/kg twice weekly in combination with IP docetaxel 10 mg/kg weekly (Group 15: animals 1501, 1502 and 1503) or IP AB-16B5 10 mg/kg twice weekly (Group 25: […]). The primary tumor was surgically removed at Day 16 post-implantation. The animals were sacrificed at Day 36 and the lungs were excised and each visible lung metastasis was carefully dissected. Each visible metastatic nodule, if any, was excised and processed for a rapid expansion of tumor infiltrating lymphocyte protocol. The metastatic nodules were sectioned into small pieces of 2-3 mm edge that were individually grown in 24 well plates containing culture medium supplemented with FBS, IL2, IL7, ITS (1,000 U/mL IL2, 2.0 ng/mL IL7 and 1× insulin—transferrin—selenium cocktail (Gibco 41400-045)).\nAfter three weeks in culture, 100,000 cells were taken from each of the lymphocyte cultures (six cultures corresponding to three animals from Group 15 and three animals from Group 25) and placed in culture with 100,000 4T1 tumor cells. After overnight co-culture, the supernatant was recovered for INFγ quantification by ELISA."}, "4T1 lung metastases [2]": {"test_system": "4T1 lung metastases", "test": "Flow cytometry immunophenotyping of lymphocytes from 4T1 lung metastases", "details": "Day 36 post-implantation, FIG. 4A and FIG. 4B", "procedure": "as §2\nThe lymphocytes were stimulated with anti-CD3 and anti-CD28 monoclonal antibodies. Lymphocytes from each donor animal were pooled and processed for flow cytometry analysis with antibodies against CD45 (lymphocyte common antigen), CD3, CD4, CD8 and CD19 (B-cell biomarker) (FIG. 4A and FIG. 4B). The resulting single cell preparations were initially selected on their size to select those corresponding to immune cells. […]"}, "4T1 lung metastases [3]": {"test_system": "4T1 lung metastases", "test": "4T1 orthotopic model: immunohistochemistry of lung metastases", "from_the_text": "Balb/c mice were orthotopically implanted with 5×10^5 4T1 cells in the 4′ mammary fat pad. Animals received IP saline treatment thrice weekly. The primary tumor was surgically removed at Day 16 post-implantation. The animals were sacrificed at Day 36 and the lungs were excised. Tissues were fixed in paraformaldehyde and processed for paraffin embedding. Tissue sections were probed with anti-mouse CD3, anti-mouse CD8 and anti-mouse B220 antibodies. […] Results presented in FIG. 1 indicate that the 4T1 lung metastases create an immune cold microenvironment which prevents the infiltration of B and T lymphocytes in tumors. Delineated regions indicate that CD3 and CD8 T lymphocytes are restricted in the tumor margin as a consequence of EMT.\nAnimals bearing 4T1 tumors were treated with the AB-16B5 antibody (murine 16B5) thrice a week IP at 10 mg/kg. The primary tumor was surgically removed at Day 16 post-implantation. The animals were sacrificed at Day 36 and the lungs were excised. Tissues were fixed in paraformaldehyde and processed for paraffin embedding. Tissue sections were probed with anti-mouse CD3, anti-mouse CD8 and anti-mouse B220 antibodies."}, "[4]": {"details": "10 mg/kg IP thrice a week, Day 36"}},
  "note": "Values joined by “and” are separate entries in the source; they are usually repeats but may differ in a detail not shown here. Identical values can stand only once. “Also recorded” adds a separate entry of the source.",
  "data": [
    {"molecule": "CC(=O)O[C@@]12CO[C@@H]1C[C@H](O)[C@@]1(C)C(=O)[C@H](O)C3=C(C)[C@@H](OC(=O)[C@H](O)[C@@H](NC(=O)OC(C)(C)C)c4ccccc4)C[C@@](O)([C@@H](OC(=O)c4ccccc4)[C@H]21)C3(C)C", "note": "[docetaxel]", "values": [
      {"measurement": "CD45+ immune cells in primary tumors", "setting": "4T1 primary tumors; Group 2: docetaxel 10 mg/kg IP 1X/week", "result": "very few CD45+ were present"},
      {"measurement": "metastatic lung nodules", "setting": "[1]; Group 2: docetaxel 10 mg/kg IP 1X/week for 5 weeks", "result": "as many metastatic lung nodules as the saline control group; also recorded: relatively ineffective"}
    ]},
    {"molecule": "murine 16B5: murine anti-clusterin (anti-sCLU) monoclonal antibody 16B5 used in the mouse studies; VL SEQ ID NO:7, VH SEQ ID NO:8 (antibody, V domains shown, Murine 16B5 VH; Murine 16B5 VL) VH: EVQLQQSGAELVKPGASVRLSCTTSGFNIKDIYMHWVKQRPEQGLEWIGRIDPAYGNTKYDPKFQGKATITADTSSNTAYLQLSSLTSEDTAVYYCARRYDTAMDYWGQGTSVTVSS VL: DIVMSQSPSSLAVSAGEKVTMSCKSSQSLLNSRTRKNYLAWYQQKPGQSPKLLIYWASTRESGVPDRFTGSGSGTDFTLTISSVQAEDLAVYYCKQSYNLWTFGGGTKLEFK", "values": [
      {"measurement": "INFγ", "setting": "4T1 tumor cells; Group 25 (samples 2501-2503, one value per animal): AB-16B5 10 mg/kg IP twice weekly, overnight co-culture with 4T1 cells", "result": "8538.8 pg/mL and 3770.0 pg/mL and 4538.8 pg/mL"},
      {"measurement": "INFγ secretion level of lymphocytes isolated from lung metastatic nodules", "setting": "4T1 tumor cells; in the presence of 4T1 cells", "result": "high levels"},
      {"measurement": "CD45+ immune cells in primary tumors", "setting": "4T1 primary tumors; Group 5: AB-16B5 10 mg/kg IP 2X/week", "result": "more immune cells"},
      {"measurement": "metastatic lung nodules", "setting": "[1]; Group 5: AB-16B5 10 mg/kg IP 2X/week for 5 weeks", "result": "less metastatic lung nodules than the saline-control-treated mice"},
      {"measurement": "infiltration of 4T1 lung metastases by B and T lymphocytes", "setting": "4T1 lung metastases [2]", "result": "infiltrated by B and T lymphocytes"},
      {"measurement": "infiltration of lung metastases with CD3 and CD8 T cells", "setting": "4T1 lung metastases [3]; [4]", "result": "densely infiltrated with CD3 and CD8 T cells"},
      {"measurement": "plasmocytes penetration in tumors", "setting": "4T1 lung metastases [3]; [4]", "result": "evidence of plasmocytes penetration"},
      {"measurement": "lung metastases, number and size", "setting": "4T1 lung metastases [3]; 10 mg/kg IP thrice a week, primary tumor removed Day 16, sacrifice Day 36", "result": "fewer and much smaller lung metastases"},
      {"measurement": "B and T lymphocytes infiltration in 4T1 lung metastases", "setting": "4T1 lung metastases [3]; FIG. 2A", "result": "Results in B (B220) and T (CD3, CD4, CD8) Lymphocytes Infiltration"}
    ]}
  ]
}
